From US20210214461A1

How the values were obtained:
[1] = target: pre-existing anti-scFv903 antibodies in human serum H80 (human); assay: competition ADA bridging ELISA, 100 mcg/ml competitor
[2] = target: pre-existing anti-scFv903 antibodies in human serum H135 (human); assay: as above
[3] = target: pre-existing anti-scFv903 antibodies in human serum H63 (human); assay: as above
[4] = target: pre-existing anti-scFv903 antibodies in human serum H19 (human); assay: as above
[5] = target: pre-existing anti-scFv903 antibodies in human serum H66 (human); assay: as above
[6] = target: pre-existing anti-scFv903 antibodies in human serum H125 (human); assay: as above
[7] = target: pre-existing anti-scFv903 antibodies in human serum H21 (human); assay: as above
[8] = target: pre-existing anti-scFv903 antibodies in human serum H116 (human); assay: as above
[9] = target: pre-existing anti-scFv903 antibodies in human serum H115 (human); assay: as above
[10] = target: pre-existing anti-scFv903 antibodies in human serum H54 (human); assay: as above
[11] = target: pre-existing anti-scFv903 antibodies in human serum H55 (human); assay: as above
[12] = target: pre-existing anti-scFv903 antibodies in human serum H46 (human); assay: as above
[13] = target: pre-existing anti-scFv903 antibodies in human serum H29 (human); assay: as above
[14] = target: pre-existing anti-scFv903 antibodies in human serum H79 (human); assay: as above
[15] = target: pre-existing anti-scFv903 antibodies in human serum H60 (human); assay: as above
[16] = target: pre-existing anti-scFv903 antibodies in human serum H69 (human); assay: as above
[17] = target: pre-existing anti-scFv903 antibodies in human serum H14 (human); assay: as above
[18] = target: pre-existing anti-scFv903 antibodies in human serum H8 (human); assay: as above
[19] = target: pre-existing anti-scFv903 antibodies in human serum H40 (human); assay: as above
[20] = target: pre-existing anti-scFv903 antibodies in human serum H59 (human); assay: as above
[21] = target: pre-existing anti-scFv903 antibodies in human serum H3 (human); assay: as above
[22] = target: pre-existing anti-scFv903 antibodies in human serum H105 (human); assay: as above
[23] = target: pre-existing anti-scFv903 antibodies in human serum H56 (human); assay: as above
[24] = target: pre-existing anti-scFv903 antibodies in human serum H76 (human); assay: as above
[25] = target: pre-existing anti-scFv903 antibodies in human serum H50 (human); assay: as above
[26] = target: pre-existing anti-scFv903 antibodies in human serum H20 (human); assay: as above
[27] = target: pre-existing anti-scFv903 antibodies in human serum H96 (human); assay: as above
[28] = target: pre-existing anti-scFv903 antibodies in human serum H49 (human); assay: as above
[29] = target: pre-existing anti-scFv903 antibodies in human serum H81 (human); assay: as above
[30] = target: pre-existing anti-scFv903 antibodies in human serum H15 (human); assay: as above
[31] = target: pre-existing anti-scFv903 antibodies in human serum H26 (human); assay: as above
[32] = target: pre-existing anti-scFv903 antibodies in human serum H53 (human); assay: as above
[33] = target: pre-existing anti-scFv903 antibodies in human serum H86 (human); assay: as above
[34] = target: pre-existing anti-scFv903 antibodies in human serum H80 (human); assay: competition ADA bridging ELISA
[35] = target: pre-existing anti-scFv903 antibodies in human serum H63 (human); assay: competition ADA bridging ELISA
[36] = target: pre-existing anti-scFv903 antibodies in human serum H116 (human); assay: competition ADA bridging ELISA
[37] = target: pre-existing anti-scFv903 antibodies in human serum H29 (human); assay: competition ADA bridging ELISA
[38] = target: pre-existing anti-scFv903 antibodies in human serum H60 (human); assay: competition ADA bridging ELISA
[39] = target: pre-existing anti-scFv903 antibodies in human serum H64 (human); assay: competition ADA bridging ELISA
[40] = target: pre-existing anti-scFv903 antibodies in human serum H49 (human); assay: competition ADA bridging ELISA
[41] = target: pre-existing anti-scFv903 antibodies in human serum H15 (human); assay: competition ADA bridging ELISA
[42] = target: pre-existing anti-scFv903 antibodies in human serum H64 (human); assay: competition ADA bridging ELISA, 100 mcg/ml competitor

B1: scFv 903 (scFv)
scFv: EIVMTQSPSTLSASVGDRVIITCQASEIIHSWLAWYQQKPGKAPKLLIYLASTLASGVPSRFSGSGSGAEFTLTISSLQPDDFATYYCQNVYLASTNGANFGQGTKLTVLGGGGGSGGGGSGGGGSGGGGSEVQLVESGGGLVQPGGSLRLSCTASGFSLTDYYYMTWVRQAPGKGLEWVGFIDPDDDPYYATWAKGRFTISRDTSKNTVYLQMNSLRAEDTAVYYCAGGDHNSGWGLDIWGQGTLVTVSS
% reduction in OD [1]: -87% | % reduction in OD [2]: -92.5% | % change in OD (signal change in competition ELISA) [3]: -96.8% | signal change in competition ELISA (% change in OD) [4]: -90.3% | % change in OD [5]: -97.2% | % reduction in OD [6]: -97.9% | % signal change in competition ELISA [7]: -85.4% | % reduction in OD [8]: -97.8% | % reduction in OD [9]: -94.7% | signal change in OD (%) [10]: -93.1% | % signal change in OD (negative = reduction) [11]: -89.4% | % change in OD signal [12]: -79.8% | % change in OD signal [13]: -79.4% | % reduction in OD [14]: -97.1% | signal change in competition ELISA [15]: -95.6% | signal change in competition ELISA (% change in OD) [16]: -92.2% | % change in OD signal [17]: -96.6% | % reduction in OD [18]: -87.3% | % signal change in OD (negative = reduction) [19]: -95.4% | signal change in competition ELISA (% change in OD) [20]: -97% | % reduction in OD [21]: -79.9% | % reduction in OD [22]: -97.2% | % change in OD [23]: -24.4% | % reduction in OD [24]: -97% | signal change in competition ELISA (% change in OD) [25]: -88.7% | signal change in competition ELISA [26]: -91.9% | % reduction in OD [27]: -80.3% | % change in OD in competition ELISA [28]: -82.7% | % reduction in OD [29]: -94.7% | % change in OD (signal change in competition ELISA) [30]: -91.1% | % change in OD (signal change) [31]: -92% | signal change in competition ELISA (%) [32]: -32.4% | % reduction in OD [33]: -86.2% | signal change in competition ELISA (% reduction in OD) [34]: -87% | signal change in competition ELISA (% reduction in OD) [35]: -97% | signal change in competition ELISA (% reduction in OD) [36]: -98% | signal change in competition ELISA (% reduction in OD) [37]: -79% | signal change in competition ELISA (% reduction in OD) [38]: -96% | signal change in competition ELISA (% reduction in OD) [39]: -97% | signal change in competition ELISA (% reduction in OD) [40]: -83% | signal change in competition ELISA (% reduction in OD) [41]: -91%

B2: scFv 961 (scFv)
scFv: EIVMTQSPSTLSASVGDRVIITCQASEIIHSWLAWYQQKPGKAPKLLIYLASTLASGVPSRFSGSGSGAEFTLTISSLQPDDFATYYCQNVYLASTNGANFGQGTKLTVLGGGGGSGGGGSGGGGSGGGGSEVQLVESGGGSVQPGGSLRLSCTASGFSLTDYYYMTWVRQAPGKGLEWVGFIDPDDDPYYATWAKGRFTISRDTSKNTVYLQMNSLRAEDTATYYCAGGDHNSGWGLDIWGQGTTVTVSS
% reduction in OD [1]: -55.1% | % reduction in OD [2]: -74.7% | % reduction in OD [3]: -35.9% | % reduction in OD [4]: -63.7% | % reduction in OD [6]: 2.7% | % reduction in OD [7]: -80.5% | % reduction in OD [8]: -33.2% | % reduction in OD [9]: -31.4% | % reduction in OD [10]: -69.4% | % reduction in OD [11]: -14.7% | % reduction in OD [12]: -40.1% | % reduction in OD [13]: -21.9% | % reduction in OD [14]: -74.1% | % reduction in OD [15]: -1.2% | % reduction in OD [16]: -6.2% | % reduction in OD [18]: -88.6% | % reduction in OD [19]: -1.7% | % reduction in OD [20]: -67.3% | % reduction in OD [21]: -1.7% | % reduction in OD [42]: -13.7% | % reduction in OD [22]: 7.4% | % reduction in OD [23]: -23.8% | % reduction in OD [24]: -36.4% | % reduction in OD [25]: -72.8% | % reduction in OD [26]: -23.5% | % reduction in OD [27]: -78% | % reduction in OD [28]: -8.8% | % reduction in OD [29]: -8.8% | % reduction in OD [31]: 0.1% | % reduction in OD [32]: -30.9% | % reduction in OD [33]: -67.9% | signal change in competition ELISA (% reduction in OD) [34]: -55% | signal change in competition ELISA (% reduction in OD) [35]: -36% | signal change in competition ELISA (% reduction in OD) [36]: -33% | signal change in competition ELISA (% reduction in OD) [37]: -22% | signal change in competition ELISA (% reduction in OD) [38]: -1% | signal change in competition ELISA (% reduction in OD) [39]: -14% | signal change in competition ELISA (% reduction in OD) [40]: -9%
